The target of assay [1] is T1, Soluble CD28-Ig (extracellular domain of human CD28 fused to the Fc portion of human IgG1) (human, UniProt P10747 19-152, biotin-conjugated (NHS-biotin) in the FACS binding assays).
T1 construct: extracellular domain; bought from R&D Systems; also called sCD28-Ig; CD28-Ig Fc; not shown: Fc portion of human IgG1
The assay can be described thus: flow cytometry of transiently transfected 293 cells. Background: In flow cytometry, cells or beads pass a laser one at a time.

The target of assay [2] is T1, Soluble CD28-Ig (extracellular domain …). The assay can be described thus: competitive FACS on transfected cells, biotin-sCD28-Ig with FITC-sCTLA-4-Ig; grade 0-2 of CD28/CTLA-4 ratio vs WT hB7-1.
In assay [3] the target is T2, Soluble CTLA-4-Ig (extracellular domain of human CTLA-4 fused to the Fc portion of human IgG1) (human, UniProt P16410 36-161, FITC-conjugated in the FACS binding assays).
T2 construct: extracellular domain; bought from R&D Systems; also called sCTLA-4-Ig; CTLA-4-Ig Fc; not shown: Fc portion of human IgG1
The assay can be described thus: flow cytometry of transfected cells, at least two experiments.

For assay [4], the target named is T1, Soluble CD28-Ig (extracellular domain …). The assay can be described thus: binding assay, data not shown.
Assay [5] deals with T2, Soluble CTLA-4-Ig (extracellular domain …). The assay can be described thus: binding assay, data not shown.
In assay [6] the target is T1, Soluble CD28-Ig (extracellular domain …). The assay can be described thus: two-color FACS of transfected 293 cells. The method, then:
(§1) The labeled cells were subsequently handled at 4° C., washed twice with DMEM/10% FCS and incubated with 0.1 μg/ml Streptavidin-phycoerythrin (PE) (Pharmingen, San Diego, Calif.) in 100 μl for 15 min. Biotin binds the fluorescence marker Streptavidin-PE. (R-PE has an excitation maximum of 565 nanometers (nm) and an emission maximum of 578 nm. B-PE has excitation and emission maxima of 545 nm and 578 nm, respectively. FITC has excitation and emission maxima of 494 and 519, respectively.) The cells were again washed twice and resuspended in 200 μl medium with 5 μg/ml propidium iodide (PI). The cells were then analyzed using a FACSCalibur flow cytometer and CellQuest software (BDIS, San Jose, Calif.). Cell sorting was performed by flow-cytometry based cell sorting screening methods using FACS (Fluorescence-Activated Cell Sorting) Vantage SE cell sorter (BDIS) (Becton Dickinson; San Jose, Calif.). The staining concentration was determined for each labeled protein to provide a maximal Mean Fluorescence Intensity (MFI) and minimal background signal (e.g., optimum staining concentration was the concentration per 10⁶ cells).

Assay [7] concerns the target T2, Soluble CTLA-4-Ig (extracellular domain …). The assay can be described thus: two-color FACS of transfected 293 cells. The method, then:
as §1

Assay [8] deals with CD28 receptor on human T cells (human, UniProt P10747 19-220). The assay can be described thus: cell-based or functional assay.

T2 sequence (P16410 36-161): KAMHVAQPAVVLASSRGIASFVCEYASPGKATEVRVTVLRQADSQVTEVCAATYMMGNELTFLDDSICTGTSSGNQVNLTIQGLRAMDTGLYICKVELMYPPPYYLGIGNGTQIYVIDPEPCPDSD

B1: CD28BP-FLAG (CD28BP-15 with a FLAG-tag) (ligand)
chain: DYKDDDDKITPKSVTKRVKETVMLSCDYNTSTEELTSLRIYWQKDSKMVLAILPGKVQVWPEYKNRTITDMNDNPRIVILALRPSDSGTYTCVIQKPVLKGAYKLEHLASVRLMIRADFPVPTINDLGNPSPNIRRLICSTSGGFPRPHLYWLENGEELNATNTTVSQDPGTELYMISSELDFNVTNNHSIVCLIKYGELSVSQIFPWSKPKQEPPIDQLPFWVIIPVSGALVLTAVVLYCLACRHVARWKRTRRNEETVGTERLSPIYLGSAQSSG
notes: also called FLAG-construct of CD28BP-15
On to B1, for which the binding result in assay [1] was “binds”.

B2: Round 2 CD28F11-8 (ligand)
chain: ITPKSVTKRVKETVMLSCDYNTSTEELTSLRIYWQKDSKMVLAILPGKVQVWPEYKNRTITDMNDNPRIVILALRLSDSGTYTCVIQKPVLKGAYKLEHLTSVRLMIRADFPVPTINDLGNPSPNIRRLICSTSGGFPRPHLYWLENGEELNATNTTLSQDPETKLYMISSELDFNMTSNLCLVKYGDLTVSQTFYWQESKPTPSANQHLTWTIIIPVSAFGISVIIAVILTCLTCRNAAIRRQRRENEVEMQSCSQSP
Take B2: the “Binding Score” value in assay [2] amounted to 0.

B3: Round 1 CD28BP-84 (ligand)
chain: GISQVTKSVKEMAALSCDYNISIDELARMRIYWQKDQQMVLSIISGQVEVWPEYKNRTFPDIINNLSLMILALRLSDKGTYTCVVQKNENGSFRREHLTSVTLSIRADSPVPSITDIGHPAPNVKRIRCSASGGFPEPRLAWMEDGEELNAVNTTVDQDLDTELYSVSSELDFNVTNNHSIVCLIKYGELSVSQIFPWSKPKQEPPIDQLPFWVIIPVSGALVLTAVVLYCLACRHVARWKRTRRNEETVGTERLSPIYLGSAQSSG
notes: also called R1clone 84; Clone 84
As for B3, in assay [3], the binding result was “binds”. The “Binding Score” value in assay [2] came out at 1.

B4: Round 1 CD28BP-118 (ligand)
chain: GISQVTKSVKEMAALSCDYNISIDELARMRIYWQKDQQMVLSIISGQVEVWPEYKNRTFPDIINNLSLMILALRLSDKGTYTCVVQKNENGSFRREHLTSVTLSIRADFPVPSITDIGHPAPNVKRIRCSASGDFPEPRLAWMEDGEELNAVNTTVDQDLDTELYSVSSELDFNVTNNHSIVCLIKYGELSVSQIFPWSKPKQEPPIDQLPFWVIIPVSGALVLTAVVLYCLACRHVARWKRTRRNEETVGTERLSPIYLGSAQSSG
notes: also called R1clone 118; Clone 118
B4: in assay [3], the binding result is “binds”. In addition, the “Binding Score” value in assay [2] was 1.

B5: Baboon B7-1 (ligand)
chain: VIHVTKEVKEVATLSCGHNVSVEELAQTRIYWQKEKKMVLTMMSGDMNIWPEYKNRTIFDITNNLSIVILALRPSDEGTYECVVLKYEKDAFKREHLAEVMLSVKADFPTPSITDFEIPPSNIRRIICSTSGGFPEPHLFWLENGEELNAINTTVSQDPGTELYTVSSKLDFNMTTNHSFVCLIKYGHLRVNQTFNWNTPKQEHFPDNLLPSWAITLISVNGIFVICCLTYCFAPRCRERRRNETLRRESVRPV
Turning to B5, the binding result in assay [4] and in assay [5] was “binds” in each case.

B6: Orangutan B7-1 (ligand)
chain: VIHVTKEVKEVATLSCGHNVSVEELAQTRIYWQKEKKMVLTMMSGDMNIWPEYKNRTIFDITNNLSIVILALRPSDEGTYECVVLKYEKDAFKREHLAEVTLSVKADFPTPSISDFEIPTSNIRRMICSTSGGFPEPHLSWLENGEELNAISTTVSQDPETELYAVSSKLDFNMTTNHSFMCLIKYGHLRVNQTFNWNTPKQEHFPDNLLPSWAITLISVNGIFVICCLTYCFAPRCRERRSNERLRRESVRPV
Consider B6, for which the binding result in assay [4] and in assay [5] was “binds” each time.

B7: Rhesus B7-1 (ligand)
chain: VIHVTKEVKEVATLSCGHNVSVEELAQTRIYWQKEKKMVLTMMSGDMNIWPEYKNRTIFDITNNLSIVILALRPSDEGTYECVVLKYEKDAFKREHLAEVMLSVKADFPTPSITDFEIPPSNIRRIICSTSGGFPEPRLSWLENGEELNAISTTVSQDPETELYTVSSKLDFNMTTNHSFMCLIKYGHLRVNQTFNWNTPKQEHFPDNLLPSWAITLISVNGIFVICCLTHCFAPRCRERRRNETLRRESVRPV
notes: also called rhesus monkey B7-1
On to B7, for which the binding result in assay [6] and in assay [7] was “binds” each time.

B8: Round 2 CD28BP-15 (ligand)
chain: ITPKSVTKRVKETVMLSCDYNTSTEELTSLRIYWQKDSKMVLAILPGKVQVWPEYKNRTITDMNDNPRIVILALRPSDSGTYTCVIQKPVLKGAYKLEHLASVRLMIRADFPVPTINDLGNPSPNIRRLICSTSGGFPRPHLYWLENGEELNATNTTVSQDPGTELYMISSELDFNVTNNHSIVCLIKYGELSVSQIFPWSKPKQEPPIDQLPFWVIIPVSGALVLTAVVLYCLACRHVARWKRTRRNEETVGTERLSPIYLGSAQSSG
notes: also called clone R2 CD28BP-15; clone 15
As to B8, the “T cell proliferation (3H-thymidine incorporation), irradiated 293 transfectants with purified human T cells and anti-CD3 mAbs” value in assay [8] was approximately 10 fold. The “Binding Score” value in assay [2] is 2.
